Test results reported in patent US20130101582A1, “Tiki1 and Tiki2, Wnt Inhibitors” (CHILDREN'S MEDICAL CENTER CORPORATION, priority 2010, published 2013).

Legend:
[1] = system: beta-catenin stabilization; assay: Beta-catenin stabilization in Wnt3a-expressing L cells, Western blotting; assay type: cell-based, mouse; settings: Wnt3a-producing L cells stably expressing human Tiki2
Method: Wnt3a CM rescued Tiki2 inhibition of beta-catenin stabilization in Wnt3a-expressing cells. Indicated cell lines were treated with control or Wnt3a CM for 2 hrs and whole cell lysates (WCL) were subjected for Western blotting. Beta-tubulin was a loading control.
(§1) As Tiki proteins are related to bacterial proteins of unknown function, it was speculated that Tiki may antagonize Wnt signaling through a novel mechanism, possibly in an enzymatic fashion. Human Tiki2 was stably expressed in L cells or Wnt3a-expressing L cells (human Tiki1 was poorly expressed in L cells). […] In fact Wnt3a CM restored beta-catenin stabilization in Wnt3a-expressing cells that also expressed Tiki2 (FIG. 5A).

[2] = molecular target: T1, mFz8CRD-IgG (Mus musculus, UniProt Q61091); assay: Binding of Wnt3a CM to mFz8CRD-IgG, protein G precipitation
T1 construct: using the extracellular domain of mouse Fz8 (mFz8CRD-IgG) or LRP6 (LRP6N-IgG)
T1 sequence (Q61091 30-151 limits assumed): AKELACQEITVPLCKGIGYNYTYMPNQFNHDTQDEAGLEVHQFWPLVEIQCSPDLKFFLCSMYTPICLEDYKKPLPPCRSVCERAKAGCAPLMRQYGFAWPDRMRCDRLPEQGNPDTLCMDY
Method: (§2) Wnt3a CM was incubated with LRP6N-IgG or mFz8CRD-IgG. The protein complexes were precipitated by protein G agarose and subjected for Western blotting.
as §1

[3] = molecular target: T2, LRP6N-IgG (Homo sapiens, UniProt O75581); assay: Binding of Wnt3a CM to LRP6N-IgG, protein G precipitation
T2 construct: using the extracellular domain of mouse Fz8 (mFz8CRD-IgG) or LRP6 (LRP6N-IgG)
T2 sequence (O75581 20-1370 limits assumed): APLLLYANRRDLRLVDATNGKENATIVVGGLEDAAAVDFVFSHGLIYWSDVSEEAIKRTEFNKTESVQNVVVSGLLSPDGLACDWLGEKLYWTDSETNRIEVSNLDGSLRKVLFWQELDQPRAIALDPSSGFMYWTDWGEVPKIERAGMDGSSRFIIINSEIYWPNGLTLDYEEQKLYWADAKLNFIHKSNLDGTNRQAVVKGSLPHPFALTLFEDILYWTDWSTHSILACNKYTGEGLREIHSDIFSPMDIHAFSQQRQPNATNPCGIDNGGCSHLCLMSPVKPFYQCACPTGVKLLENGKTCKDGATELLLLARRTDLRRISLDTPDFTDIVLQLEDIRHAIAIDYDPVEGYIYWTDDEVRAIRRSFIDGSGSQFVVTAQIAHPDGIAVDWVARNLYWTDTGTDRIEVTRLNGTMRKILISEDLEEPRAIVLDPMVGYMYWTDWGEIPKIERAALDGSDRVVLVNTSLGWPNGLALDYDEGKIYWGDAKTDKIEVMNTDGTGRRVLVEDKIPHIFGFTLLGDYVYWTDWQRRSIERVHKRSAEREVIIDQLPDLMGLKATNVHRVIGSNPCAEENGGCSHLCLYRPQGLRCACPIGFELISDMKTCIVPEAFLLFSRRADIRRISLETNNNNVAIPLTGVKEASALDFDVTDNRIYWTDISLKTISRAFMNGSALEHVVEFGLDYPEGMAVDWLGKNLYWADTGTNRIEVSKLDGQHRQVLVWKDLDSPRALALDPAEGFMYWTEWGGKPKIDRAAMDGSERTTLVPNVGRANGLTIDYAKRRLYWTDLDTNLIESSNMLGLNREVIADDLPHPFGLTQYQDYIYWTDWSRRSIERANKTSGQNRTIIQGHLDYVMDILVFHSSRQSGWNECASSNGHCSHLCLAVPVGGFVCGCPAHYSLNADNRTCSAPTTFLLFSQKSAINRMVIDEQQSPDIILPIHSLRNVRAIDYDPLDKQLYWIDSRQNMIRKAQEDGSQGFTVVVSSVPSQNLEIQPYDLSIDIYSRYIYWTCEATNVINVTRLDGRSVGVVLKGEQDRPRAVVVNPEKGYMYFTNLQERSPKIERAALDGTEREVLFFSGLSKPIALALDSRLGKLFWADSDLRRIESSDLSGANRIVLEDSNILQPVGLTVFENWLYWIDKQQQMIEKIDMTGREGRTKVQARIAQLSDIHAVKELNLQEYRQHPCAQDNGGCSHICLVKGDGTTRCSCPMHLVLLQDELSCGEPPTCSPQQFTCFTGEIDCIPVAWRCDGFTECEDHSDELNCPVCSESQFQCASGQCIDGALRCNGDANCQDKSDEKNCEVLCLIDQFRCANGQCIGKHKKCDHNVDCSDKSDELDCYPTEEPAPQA
Method: as §2, §1

[4] = molecular target: T3, Wnt3a (Mus musculus, UniProt P27467); assay: Triton X-114 phase separation of Wnt3a secreted from Tiki-expressing cells; assay type: cell-based; parameters: expressed in transfected cells; host or cells: mouse L cells (Wnt3a-expressing); HEK293T
T3 sequence (P27467 19-352): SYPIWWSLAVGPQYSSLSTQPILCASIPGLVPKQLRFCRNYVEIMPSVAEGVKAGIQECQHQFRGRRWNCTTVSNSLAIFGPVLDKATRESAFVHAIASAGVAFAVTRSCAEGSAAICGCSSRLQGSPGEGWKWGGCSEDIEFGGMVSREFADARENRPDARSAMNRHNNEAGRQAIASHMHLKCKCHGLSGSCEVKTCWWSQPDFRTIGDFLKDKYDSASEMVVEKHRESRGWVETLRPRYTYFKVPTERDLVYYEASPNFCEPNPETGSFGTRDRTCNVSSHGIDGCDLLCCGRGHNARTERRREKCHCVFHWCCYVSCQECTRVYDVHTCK
From the text: FIG. 6A is a gel showing that Tiki inactivates Wnt3a by regulating Wnt3a acylation/palmitoylation. A Triton X-114 phase separation experiment is shown in 6A. […] T, total; Aq, aqueous; De, detergent.
FIG. 6B is a gel showing that Wnt3a secreted from Tiki1 or Tiki2 but not GFP-expressing HEK293T cells partitioned in the aqueous phase.
C77 palmitoylation is required for Wnt3a activity (Willert, K. et al., Nature 423, 448-452 (2003)) and binding to both Fz and LRP6 (Komekado, H. et al., Genes Cells 12, 521-534 (2007); Cong, F. et al., Development 131, 5103-5115 (2004)), while S209 acylation is critical for Wnt3a secretion (Takada, R. et al., Dev Cell 11, 791-801 (2006)). Thus Tiki proteins may affect C77 palmitoylation but not S209 acylation. The palmitate adduct at C77 is the primary contributor to Wnt3a hydrophobicity because palmitoylated Wnt3a is partitioned in the Triton X-114 detergent phase whereas Wnt3a lacking the palmitate is soluble in the aqueous phase (Willert, K. et al., Nature 423, 448-452 (2003); Komekado, H. et al., Genes Cells 12, 521-534 (2007)).

[5] = molecular target: T3, Wnt3a; assay: Acyl-biotinyl exchange (ABE) analysis of Wnt3a produced from Tiki2-expressing cells; assay type: cell-based; parameters: expressed in transfected cells; host or cells: mouse L cells (Wnt3a-expressing); HEK293T; settings: compared to Wnt3a from control cells
From the text: FIG. 6C is a gel showing the results of Acyl-biotinyl exchange (ABE) analysis of control Wnt3a or Wnt3a produced from Tiki2-expressing cells. Biotinylation of Wnt3a secreted from Tiki2-expressing cells was much reduced compared to that of Wnt3a from control cells.
Biotinylation of Wnt3a secreted in the presence of Tiki2 was much reduced compared to that of Wnt3a from control cells (FIG. 6C). This reduction of available thioester linkage indicates depalmitoylation of Wnt3a at a cysteine residue, e.g., C77, in the presence of Tiki2

Binding of Wnt3a secreted from Tiki2-expressing cells to Fz (mFz8CRD-IgG) [2]: failed to bind to either Fz or LRP6
Binding of Wnt3a secreted from Tiki2-expressing cells to LRP6 (LRP6N-IgG) [3]: failed to bind to either Fz or LRP6
Biotinylation of secreted Wnt3a in ABE assay [5]: much reduced
B1: Tiki2: Human Tiki2 (XP 371250/LOC388630) (SEQ ID NO:2), expressed in L or HEK293T cells (protein, listed as Homo sapiens)
chain: MHAALAGPLLAALLATARARPQPPDGGQCRPPGSQRDLNSFLWTIRRDPPAYLFGTIHVPYTRVWDFIPDNSKAAFQASTRVYFELDLTDPYTISALASCQLLPHGENLQDVLPHELYWRLKRHLDYVKLMMPSWMTPAQRGKGLYADYLFNAIAGNWERKRPVWVMLMVNSLTERDVRFRGVPVLDLYLAQQAEKMKKTTGAVEQVEEQCHPLNNGLNFSQVLFALNQTLLQQESVRAGSLQASYTTEDLIKHYNCGDLSAVIFNHDTSQLPNFINTTLPPHEQVTAQEIDSYFRQELIYKRNERMGKRVMALLRENEDKICFFAFGAGHFLGNNTVIDILRQAGLEVDHTPAGQAIHSPAPQSPAPSPEGTSTSPAPVTPAAAVPEAPSVTPTAPPEDEDPALSPHLLLPDSLSQLEEFGRQRKWHKRQSTHQRPRQFNDLWVRIEDSTTASPPPLPLQPTHSSGTAKPPFQLSDQLQQQDPPGPASSSAPTLGLLPAIATTIAVCFLLHSLGPS
Beta-catenin stabilization [1]: inhibited beta-catenin stabilization
Partitioning of secreted Wnt3a in Triton X-114 phase separation ([4]; HEK293T cells): partitioned exclusively in the aqueous phase
Partitioning of secreted Wnt3a in Triton X-114 phase separation ([4]; L cells): partitioned exclusively in the aqueous phase
